# Target: the molecule itself
# Assay: EGS crosslinking of recombinant protein, SDS-PAGE, immunoblot
row,Protein,binding result
1,"recombinant ΔN-IKK-γ (134-419) (other, not shown: small tags and cut ends, also called N-terminal truncation) QMAEDKASVKAQVTSLLGELQESQSRLEAATKECQALEGRARAASEQARQLESEREALQQQHSVQVDQLRMQGQSVEAALRMERQAASEEKRKLAQLQVAYHQLFQEYDNHIKSSVVGSERKRGMQLEDLKQQLQQAEEALVAKQEVIDKLKEEAEQHKIVMETVPVLKAQADIYKADFQAERQAREKLAEKKELLQEQLEQLQREYSKLKASCQESARIEDMRKRHVEVSQAPLPPAPAYLSSPLALPSQRRSPPEEPPDFCCPKCQYQAPDMDTLQIHVMECIE",binds
2,"recombinant ΔC-IKK-γ (1-300) (other, not shown: small tags and cut ends, also called C-terminal truncation) MNRHLWKSQLCEMVQPSGGPAADQDVLGEESPLGKPAMLHLPSEQGAPETLQRCLEENQELRDAIRQSNQILRERCEELLHFQASQREEKEFLMCKFQEARKLVERLGLEKLDLKRQKEQALREVEHLKRCQQQMAEDKASVKAQVTSLLGELQESQSRLEAATKECQALEGRARAASEQARQLESEREALQQQHSVQVDQLRMQGQSVEAALRMERQAASEEKRKLAQLQVAYHQLFQEYDNHIKSSVVGSERKRGMQLEDLKQQLQQAEEALVAKQEVIDKLKEEAEQHKIVMETVPV",binds
